± gives the uncertainty stated by the source.
Assay: protein stability index of a GFP-peptide fusion (yeast GPS) (PSI 1-4); higher = more stable; sorted into four equal gates, so the index is relative within each strain
How it was run: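 Plasmids in a pooled yeast library fused tiled 17-residue yeast protein peptides downstream of GFP and also expressed Cherry. Mid-log cultures grown without leucine were sorted into four equal gates by GFP/Cherry fluorescence ratio. Each gate's plasmids were PCR-amplified and Illumina-sequenced, and reads were matched to strains by barcodes. The protein stability index is derived by multiplying each gate's read frequency by its gate number and summing the results.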

Sequence | protein stability index (doa10∆) | protein stability index (pdr5∆) | protein stability index (san1∆) | protein stability index (ubr1∆)
SFFHQSNMQKSLLPYYH [RPN3] | 1.66 ± 0.037 | 1.67 ± 0.041 | 1.63 ± 0.07 | 1.9 ± 0.03
KFNKSKAKFTSLAVRSL [YCS4] | 2.09 ± 0.065 | 2.01 ± 0.056 | 1.96 ± 0.067 | 1.8 ± 0.039
AGIPIGLKRSQLDEFKN [SWP82] | 2.56 ± 0.084 | 2.22 ± 0.075 | 2.21 ± 0.098 | 1.38 ± 0.055
TFTFTAHMGVLLVLLQD [SWP82] | 1.71 ± 0.044 | 1.32 ± 0.044 | 1.41 ± 0.087 | 1.42 ± 0.035
ENPTDNFIIWINSIDTT [GRR1] | 2.44 ± 0.045 | 2.51 ± 0.053 | 2.61 ± 0.049 | 2.74 ± 0.048
EDMIRSVFDATSDPVMH [RPN1] |  |  | 3.15 ± 0.23 | 
LNKDSTNEFVGSPSLTS [NUT1] | 2.96 ± 0.062 | 3.18 ± 0.057 | 2.93 ± 0.044 | 2.9 ± 0.042
LAFYQVTPEEDEEEDEE [RPL22A] | 3.14 ± 0.1 | 3.45 ± 0.12 | 3.61 ± 0.06 | 3.38 ± 0.11
NDPEILKKIASIPNLFP [SWI1] | 2.36 ± 0.049 | 2.19 ± 0.036 | 2.36 ± 0.058 | 2.53 ± 0.035
TQSYNNQNTLKEISARR [POP1] | 2.29 ± 0.041 | 2.48 ± 0.035 | 2.24 ± 0.063 | 2.78 ± 0.037
QGNYPTTSYIKEQENIT [DPB4] | 3 ± 0.06 | 3.1 ± 0.06 | 3.02 ± 0.041 | 3.18 ± 0.075
AVKYGLNHVVSLIENKK [RPL8B] | 2.25 ± 0.079 | 2.37 ± 0.077 | 2.26 ± 0.089 | 2.01 ± 0.047
LLKEKPNALKPLSESLR [RRP6] | 2.71 ± 0.059 | 2.83 ± 0.065 | 2.91 ± 0.077 | 2.94 ± 0.044
PDKDYLLSIPISCPLIG [FAS1] | 1.28 ± 0.19 | 1.64 ± 0.13 | 1.25 ± 0.19 | 1.07 ± 0.077
WPKTRGVAMNPVDHPHG [RPL2A] | 2.37 ± 0.078 | 2.25 ± 0.057 | 2.74 ± 0.058 | 2.55 ± 0.066
EEIPINSSEQESDYEPN [SIR3] | 2.82 ± 0.068 | 3.15 ± 0.067 | 3 ± 0.045 | 2.77 ± 0.048
SQLAKWKTAEEVSALVR [PRP8] | 1.26 ± 0.17 |  |  | 
ISTPIINAVLVNDNDER [RPO31] | 2.25 ± 0.085 | 2.22 ± 0.1 | 2.31 ± 0.12 | 2.21 ± 0.086
NVHGSLEPFLLMLEDTD [BRR2] | 2.47 ± 0.077 | 2.63 ± 0.088 | 2.87 ± 0.11 | 2.94 ± 0.059
EIKDGRSLFLRNRGKIH [YMR153W/NUP53] | 2.01 ± 0.095 | 2.2 ± 0.068 | 1.54 ± 0.16 | 2.46 ± 0.066
LALTTLSEPLIKIGIRV [YCG1] | 1.81 ± 0.061 | 2.06 ± 0.047 | 1.74 ± 0.065 | 2.01 ± 0.057
AKNETNSESDSKSDSDS [ITC1] | 3.01 ± 0.05 | 3.03 ± 0.049 | 3.09 ± 0.047 | 2.88 ± 0.042
EHIKEGSEIAISSLGYR [SWI3] | 2.78 ± 0.055 | 3.02 ± 0.063 | 2.99 ± 0.05 | 2.95 ± 0.052
VINLKQIAKFVVGLGER [RPT1] | 2.75 ± 0.14 | 3.39 ± 0.18 | 3.12 ± 0.3 | 
LLSLISTTAALQSISSL [RPN7] | 1.94 ± 0.053 | 1.95 ± 0.05 | 1.77 ± 0.075 | 2.24 ± 0.049
GILLETISVPQIRDVME [RRP6] | 2.74 ± 0.072 | 2.56 ± 0.06 | 2.89 ± 0.056 | 2.64 ± 0.067
FESLPLKSAENSGKQQY [SWP82] | 3.17 ± 0.063 | 3.3 ± 0.057 | 3.01 ± 0.055 | 3.2 ± 0.056

Sequence | protein stability index (doa10∆) | protein stability index (pdr5∆) | protein stability index (san1∆) | protein stability index (ubr1∆)
ISSLFTITTILILGLNT [YML103C/NUP188] | 1.51 ± 0.078 | 1.75 ± 0.094 | 1.46 ± 0.2 | 1.75 ± 0.065
DSVTTETGKLLSGLAQR [BRN1] | 2.5 ± 0.12 | 2.87 ± 0.099 | 2.66 ± 0.15 | 2.66 ± 0.072
KRCVGVILGDANSSTIR [RPN8] | 2.85 ± 0.042 | 2.77 ± 0.051 | 2.82 ± 0.061 | 2.94 ± 0.039
QSRVPTSLTSIKWENAF [PRP8] | 3.21 ± 0.077 | 3.3 ± 0.11 | 3.44 ± 0.072 | 3.18 ± 0.048
STFENRNVGKTLVNKST [RPS1A] | 2.91 ± 0.085 | 2.74 ± 0.059 | 3.09 ± 0.055 | 3.14 ± 0.068
LIGCIPYSKNAVEQLAG [YDL088C/ASM4] | 3.08 ± 0.2 | 3.01 ± 0.14 | 2.94 ± 0.088 | 2.92 ± 0.27
VNWLAYTYLYVRMLASP [BRR2] | 1.11 ± 0.14 | 1.14 ± 0.18 | 1.31 ± 0.19 | 1.24 ± 0.1
LKSHYYQTCKNSEYLKR [SMC2] | 1.54 ± 0.067 | 1.5 ± 0.057 | 1.36 ± 0.091 | 1.85 ± 0.046
HKLRESLPLIVFLRNRL [RPS4A] | 1.85 ± 0.052 | 1.57 ± 0.053 | 1.4 ± 0.1 | 1.43 ± 0.043
EELINAAKGSSTSYAIK [RPS5] | 2.66 ± 0.077 | 1.88 ± 0.051 | 1.43 ± 0.068 | 1.76 ± 0.044
SKKRQAEKLVPLPICHA [YML031W/NDC1] | 2.33 ± 0.12 | 2.5 ± 0.049 | 2.39 ± 0.087 | 2.39 ± 0.093
DVQLERVADEDANLNDL [IRR1] | 2.89 ± 0.17 |  |  | 
RASLVPGTVLILLAGRF [RPL6A] | 1.67 ± 0.054 | 1.93 ± 0.084 | 1.78 ± 0.1 | 1.75 ± 0.082
DQAMEKKPSPQTIPIQI [YGR119C/NUP57] |  | 2.85 ± 0.24 |  | 
PRMIELMEFLCVVSTDS [ECM29] | 2.04 ± 0.064 | 1.66 ± 0.066 | 1.64 ± 0.1 | 1.4 ± 0.054
FNYQGDELVLNFENDNE [REC8] | 2.9 ± 0.18 | 3.25 ± 0.17 | 2.79 ± 0.11 | 2.63 ± 0.068
FVSNMGFDIQKSCEPVS [SIR4] | 2.06 ± 0.066 | 2.05 ± 0.12 | 1.68 ± 0.24 | 2.12 ± 0.075
PDIADIPRTFRTPVPST [SNF5] | 2.12 ± 0.093 | 1.96 ± 0.059 | 2.04 ± 0.064 | 2.01 ± 0.072
GRAGVPMEVMGLMLGEF [RPN11] | 1.25 ± 0.17 | 2.12 ± 0.26 | 1.69 ± 0.18 | 
DDRYGYQLYTSNPSGNY [PRE9] | 2.88 ± 0.073 | 2.97 ± 0.081 | 3.06 ± 0.065 | 3.1 ± 0.05
VFVGTIFAGAFVFQTVF [QCR9] | 1.82 ± 0.061 | 1.4 ± 0.049 | 1.23 ± 0.11 | 1.5 ± 0.043
LTSTKVKQLENVSSNIV [RPS20] | 1.75 ± 0.075 | 2.16 ± 0.12 | 2.65 ± 0.11 | 3.19 ± 0.075
TYQLCVRLRSNVIKTGI [RPN3] | 3.25 ± 0.14 | 3.35 ± 0.14 | 3.27 ± 0.084 | 
ELAINLIRFDESITKAM [SMC2] | 2.59 ± 0.062 | 2.78 ± 0.08 | 2.62 ± 0.09 | 2.65 ± 0.071
QSISGTLELSAQFRVPR [SWP82] | 2.46 ± 0.077 | 2.77 ± 0.069 | 2.52 ± 0.084 | 2.79 ± 0.066
QTFNFDSFENYFNQLKP [RPN12] | 2.76 ± 0.047 | 2.9 ± 0.064 | 3.05 ± 0.052 | 3 ± 0.046
FLKLANGGKFSKSNLIH [RGR1] | 2.65 ± 0.049 | 2.55 ± 0.061 | 2.87 ± 0.077 | 2.79 ± 0.059

Reference: the supplement of paper PMC9732359
